Experimental findings from patent EP0266663A1 are described below.

The target in assay [1] is L6 antigen (human) (UniProt P30408). Briefly: inhibition of the binding of FITC-labelled mouse L6 to 3347 cells, flow cytometry; 50% inhibition; run with the pooled chimeric L6.
For assay [2] the target is unchanged. The experiment in a line: inhibition of the binding of FITC-labelled mouse L6 to 3347 cells, flow cytometry; 50% inhibition; run with the chimeric L6 from ascites.
Assay [3] has the same target. Briefly: cell-based or functional assay.
Assay [4] shares this target. The experiment in a line: inhibition of the binding of FITC-labelled mouse L6 to 3347 cells, flow cytometry; 50% inhibition.

Sequence of UniProt P30408 (P30408 whole entry): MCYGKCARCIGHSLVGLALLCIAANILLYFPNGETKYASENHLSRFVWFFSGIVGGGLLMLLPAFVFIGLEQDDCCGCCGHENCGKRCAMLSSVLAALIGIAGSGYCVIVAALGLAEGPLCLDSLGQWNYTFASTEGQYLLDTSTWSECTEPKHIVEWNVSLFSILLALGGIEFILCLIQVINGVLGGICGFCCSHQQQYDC

For L6 monoclonal antibody (mouse, IgG2a), the values for the IC50 in assay [1] and in assay [2] were 2 µg/mL and 2.7 µg/mL, respectively.

In turn, “chimeric L6 antibody (from UniProt P01857 1-330)” showed a tumor killing activity (ADCC or CDC) in assay [3] of 0.01 µg/mL. For the same substance, the IC50 (in general, the concentration needed to halve the response being measured) in assay [4] was 3.4 µg/mL.
